The text below walks through data of patent US20150232562A1 (Ablynx, published 2015).

Usually koff stands for the first-order rate constant of dissociation. What is called Kd is a measure of binding affinity in units of concentration. As usually defined, the kon is a measure of how fast the partners come together.

Experiment [1] addresses T1, recombinant human ErbB2/Fc chimera (human, UniProt P04626 23-652).
T1 construct: bought from R&D Systems; also called rhErbB2-Fc; rhErb2-Fc; Fc part of the bought chimera not given; not described
Nature of the experiment: SPR (Biacore 3000), purified Nanobody over immobilised rhErbB2-Fc. A general note: Surface plasmon resonance follows binding to a sensor surface in real time, without labels.

The target of experiment [2] is T1, recombinant human ErbB2/Fc chimera. Nature of the experiment: SPR (Biacore 3000), periplasmic extract over immobilised rhErbB2-Fc.
The target in experiment [3] is T2, Epidermal Growth Factor Receptor 2 (HER2) (human, UniProt P04626 23-1255).
T2 construct: whole, on cells; the cell line is named under assay; also called ErbB-2; ERBB2
Nature of the experiment: FMAT competition on SKBR3 cells, periplasmic extract.

The target in experiment [4] is T1, recombinant human ErbB2/Fc chimera. Nature of the experiment: SPR (Biacore T100), Nanobody over immobilised rhErbB2-Fc.

B1: 27B7-35GS-2D3 (bispecific antibody)
chain: EVQLVESGGGLVQPGGSLRLSCAASGFTFSSYAMSWVRQAPGKGLEWVSAISSGGGSITTYADSVKGRFTISRDNAKNTLYLQMSSLKPEDTALYYCAKARSSSSYYDFGSWGQGTQVTVSSGGGGSGGGGSGGGGSGGGGSGGGGSGGGGSGGGGSEVQLVESGGSLVQPGGSLRLSCAASGFTFDDYAMSWVRQVPGKGLEWVSSINWSGTHTDYADSVKGRFTISRNNANNTLYLQMNSLKSEDTAVYYCAKNWRDAGTTWFEKSGSAGQGTQVTVSS
notes: biparatopic Nanobody; C-term myc-His6 tag; also called 2B7-35GS-2D3
Take B1: the off-rate (koff) in experiment [1] is approximately 0.001 s⁻¹.

B2: 2C1 (VHH)
VHH: EVQLVESGGGLVQPGGSLRLSCVASGFSLDDYGMTWVRQAPGKGLEWVSSINWSGTHTDYTDSVKGRFTISRDNAKNTLFLQMNSLTPEDTAVYYCNQGWKIIPTDRRGHGTQVTVSS
notes: C-term myc-His6 tag
As for B2, the koff in experiment [2] stood at 0.00118 s⁻¹.

B3: 2B3 (VHH)
VHH: EVQLVESGGGLVQPGGSLRLSCVASGFSLDDYGMTWVRQAPGKGLEWVSSINWSGTHTDCADSVKGRFTISRDNAKNTLFLQMNSLTPEDTAVYYCNQGWKIIPTDRRGHGTQVTVSS
notes: C-term myc-His6 tag
Turning to B3, the “% blocking of Herceptin binding” value in experiment [3] was more than 90%. For the same molecule, in experiment [2], the koff amounted to 0.00125 s⁻¹.

B4: 2F4 (VHH)
VHH: EVQLVESGGGLVQPGGSLRLSCVASGFSLDDYGMTWVRQAPGKGLEWVSSINWSGTHTDYADSVKGRFTISRDNAKNTLFLQMNSLRSEDTAVYYCNQGWKIVPTDRRGHGTQVTVSS
notes: C-term myc-His6 tag
Turning to B4, the “% blocking of Herceptin binding” value in experiment [3] was more than 90%. Moreover, the off-rate (koff) in experiment [2] was 0.00107 s⁻¹.

B5: 2C2 (VHH)
VHH: EVQLVESGGGLVQPGGSLRLSCVASGFSLDDYAMTWVRQAPGKGLEWVSSINWSGTHTDYADSVKGRFTISRDNARNTLFLQMNSLTPEDTAIYYCNQGWKILPTDRRGHGTQVTVSS
notes: C-term myc-His6 tag
For the molecule B5, the “% blocking of Herceptin binding” value in experiment [3] is more than 90%. Moreover, the koff in experiment [2] is 0.00412 s⁻¹.

B6: 2G2 (VHH)
VHH: EVQLVESGGGLVQPGGSLRLSCVASGFSLDDYGMTWVRQAPGKGLEWVSSINWSGTHTDYTDPVKGRFTISRDNAKNTLFLQMNNLTPEDTAVYYCNRGWKIVPTDLGGHGTQVTVSS
notes: C-term myc-His6 tag
Regarding B6, the “% blocking of Herceptin binding” value in experiment [3] was more than 90%. Moreover, in experiment [2], the koff amounted to 0.0013 s⁻¹.

B7: 2D1 (VHH)
VHH: EVQLVESGGGLVQPGGSLRLSCVASGFSLDDYGMTWVRQAPGKGLEWVSSINWSGTHTDYADSVKGRFTISRDNAKNTLFLQMNSLSPEDTAVYYCNRGWKILPTNRGSHGTQVTVSS
notes: C-term myc-His6 tag
Take B7: in experiment [3], the “% blocking of Herceptin binding” value was more than 90%. In addition, in experiment [2], the koff was 0.00127 s⁻¹.

B8: 2F1 (VHH)
VHH: EVQLVESGGGLVQPGGSLRLSCVASGFSLDDYGMTWVRQAPGKELEWISSINWSGTHTDYADSVKGRFTISRDNAKNTLFLQMNSLTPEDTAVYYCNQGWKIVPMDRRGHGTQVTVSS
notes: C-term myc-His6 tag
As for B8, in experiment [3], the “% blocking of Herceptin binding” value was more than 90%. Further, the koff in experiment [2] was 0.00177 s⁻¹.

B9: 2B4 (VHH)
VHH: EVQLVESGGGLVQPGGSLRLSCVGSGFSLDDYAMTWVRQAPGKGLEWVSSINWSGTHTDYADSVKGRFTISRDNAKNTLFLQMNSLSPEDTAVYYCNQGWKIRPTIPMGHGTQVTVSS
notes: C-term myc-His6 tag
With B9, in experiment [2], the dissociation rate constant (koff) was 0.00277 s⁻¹.

B10: 2H1 (VHH)
VHH: EVQLVESGGGLVQPGGSLRLSCVASGFSLDDYGMTWVRQAPGKGLEWVSSINWSGTHTDYADSVRGRFVISRDNAKNTLFLQMNSLSPEDTAVYYCNQGWKIIPTDRRGHGTQVTVSS
notes: C-term myc-His6 tag
As to B10, in experiment [3], the “% blocking of Herceptin binding” value was more than 90%. In addition, the dissociation rate constant (koff) in experiment [2] turned out to be 0.00109 s⁻¹.

B11: 2D5 (VHH)
VHH: EVQLVESGGGLVQPGGSLRLSCVASGFSLDDYGMTWVRQAPGKGLEWVSSINWSGTHTDYADSVKGRFTISRDNAKNTLFLQMNSLRSEDTAVYYCNQGWKIVPTDRGGHGTQVTVSS
notes: C-term myc-His6 tag
For the molecule B11, in experiment [3], the “% blocking of Herceptin binding” value was more than 90%. Further, the koff in experiment [2] turned out to be 0.0012 s⁻¹.

B12: 2H4 (VHH)
VHH: EVQLVESGGSLVQPGGSLRLSCAASGFTFDDYAMTWVRQAPGKGLEWVSSINWSGTHTDYTDSVKGRFTISRNNANNTLYLQMNSLKSEDTAVYYCAKNWGDAGTTWFEKSGSAGQGTQVTVSS
notes: C-term myc-His6 tag
As for B12, the “% blocking of Herceptin binding” value in experiment [3] was more than 90%. Moreover, in experiment [2], the koff came out at 0.00161 s⁻¹.

B13: 2F3 (VHH)
VHH: EVQLVESGGSLVQPGGSLRLSCAASGFTFDDYAMTWVRQAPGKGLEWVSSINWSGTHTDYTGSVKGRFTISRNNANNTLYLQMNSLKSDDTAVYYCAKNWGDAGTTWFEKSGSAGPGTQVTVSS
notes: C-term myc-His6 tag
As to B13, the “% blocking of Herceptin binding” value in experiment [3] is more than 90%. In addition, the off-rate constant (koff) in experiment [2] worked out at 0.00153 s⁻¹.

B14: 2D4 (VHH)
VHH: EVQLVESGGSLVQPGGSLRLSCAASGFTFDDYAMTWVRQAPGKGLEWVSSINWSGTHTDYADSVKGRFTISRNNANNTLYLQMNSLKSDDTAVYYCAKNWGDAGTTWFEKSGSAGPGTQVTVSS
notes: C-term myc-His6 tag
On to B14, for which, in experiment [3], the “% blocking of Herceptin binding” value is more than 90%. The off-rate constant (koff) in experiment [2] is 0.00165 s⁻¹.

B15: 2B1 (VHH)
VHH: EVQLVESGGSLVQPGGSLRLSCAASGFTFDDYAMTWVRQAPGKGLEWVSSINWSGTHTDYTDSVKGRFTISRNNANNTLYLQMNSLKSDDTAVYYCAKNWGDAGTTWFEKSGSAGPGTQVTVSS
notes: C-term myc-His6 tag
B15: in experiment [2], the off-rate (koff) was 0.00155 s⁻¹.

B16: 2F5 (VHH)
VHH: EVQLVESGGSLVPPGGSLRLSCAASGFTFDDYAMSWVRQAPGKGLEWVSSINWSGTHTDYTDSVKGRFTISRNNANNTLYLQMNSLKSEDTAVYYCAKNWGDAGTTWFEKSGSAGQGTQVTVSS
notes: C-term myc-His6 tag
With B16, in experiment [3], the “% blocking of Herceptin binding” value is more than 90%. In experiment [2], the koff is 0.00157 s⁻¹.

B17: 2D3-35GS-2D3 (VHH)
chain: EVQLVESGGSLVQPGGSLRLSCAASGFTFDDYAMSWVRQVPGKGLEWVSSINWSGTHTDYADSVKGRFTISRNNANNTLYLQMNSLKSEDTAVYYCAKNWRDAGTTWFEKSGSAGQGTQVTVSSGGGGSGGGGSGGGGSGGGGSGGGGSGGGGSGGGGSEVQLVESGGSLVQPGGSLRLSCAASGFTFDDYAMSWVRQVPGKGLEWVSSINWSGTHTDYADSVKGRFTISRNNANNTLYLQMNSLKSEDTAVYYCAKNWRDAGTTWFEKSGSAGQGTQVTVSS
notes: bivalent 2D3, 35GS linker; C-term myc-His6 tag
Consider B17, for which the dissociation rate constant (koff) in experiment [1] is approximately 0.0001 s⁻¹.

B18: DUMMY-35GS-47D5 (bispecific antibody)
chain: EVQLVESGGGLVQAGGSLRLSCAASGRTFRSYPMGWFRQAPGKEREFVASITGSGGSTYYADSVKGRFTISRDNAKNTVYLQMNSLRPEDTAVYSCAAYIRPDTYLSRDYRKYDYWGQGTQVTVSSGGGGSGGGGSGGGGSGGGGSGGGGSGGGGSGGGGSEVQLVESGGGLVQPGGSLRLSCAASGSIFGFNDMAWYRQAPGKQRELVALISRVGVTSSADSVKGRFTISRVNAKDTVYLQMNSLKPEDTAVYYCYMDQRLDGSTLAYWGQGTQVTVSS
notes: control: dummy Nanobody fused N-terminally to 47D5; C-term myc-His6 tag; also called Dummy-47D5
Regarding B18, in experiment [4], the Kd stood at 3.21 nM, the koff was determined as 0.000869 s⁻¹ and the association rate constant (kon) came out at 271000 M⁻¹ s⁻¹.
